# Measured values from PMC7367873, “Dissecting the sequence determinants for dephosphorylation by the catalytic subunits of phosphatases PP1 and PP2A” (Nature Communications, 2020).
# Tests used:
# [1] = tested on: GFP-14-3-3β and its binding proteins; assay: GFP-14-3-3β co-IP with LC-MS/MS label-free quantification, untreated versus PP1c-treated; design: species or system human; details: label-free quantification, 3 replicates each
# GFP-14-3-3β = GFP-14-3-3β co-IP with LC-MS/MS, untreated GFP-14-3-3β versus GFP control (14-3-3 interactome); format: binding, human; details: label-free quantification, 3 replicates each
# [2] = GFP-14-3-3β co-IP LC-MS/MS, PP1 vs untreated, student's t-test
# [3] = GFP-14-3-3β co-IP LC-MS/MS, untreated vs GFP, student's t-test
Molecule,"Difference (log2), PP1 vs untreated [1, 2] [log2]","Difference (log2), untreated vs GFP (GFP-14-3-3β; [3]) [log2]","Difference (log2), PP1 vs untreated ([1]; log2 difference, pairwise comparison PP1 vs untreated)","Difference (log2), untreated vs GFP (GFP-14-3-3β; log2 difference, pairwise comparison untreated vs GFP)"
"TFCP2 (protein, UniProt Q12800 1-502, looked up) Alpha-globin transcription …: MAWALKLPLADEVIESGLVQDFDASLSGIGQELGAGAYSMSDVLALPIFKQEESSLPPDNENKILPFQYVLCAATSPAVKLHDETLTYLNQGQSYEIRMLDNRKLGELPEINGKLVKSIFRVVFHDRRLQYTEHQQLEGWRWNRPGDRILDIDIPMSVGIIDPRANPTQLNTVEFLWDPAKRTSVFIQVHCISTEFTMRKHGGEKGVPFRVQIDTFKENENGEYTEHLHSASCQIKVFKPKGADRKQKTDREKMEKRTPHEKEKYQPSYETTILTECSPWPEITYVNNSPSPGFNSSHSSFSLGEGNGSPNHQPEPPPPVTDNLLPTTTPQEAQQWLHRNRFSTFTRLFTNFSGADLLKLTRDDVIQICGPADGIRLFNALKGRMVRPRLTIYVCQESLQLREQQQQQQQQQQKHEDGDSNGTFFVYHAIYLEELTAVELTEKIAQLFSISPCQISQIYKQGPTGIHVLISDEMIQNFQEEACFILDTMKAETNDSYHIILK",-0.2131,0.6477,,
"NAT10 (protein, UniProt Q9H0A0 1-1025, looked up) RNA cytidine acetyltransferase: MHRKKVDNRIRILIENGVAERQRSLFVVVGDRGKDQVVILHHMLSKATVKARPSVLWCYKKELGFSSHRKKRMRQLQKKIKNGTLNIKQDDPFELFIAATNIRYCYYNETHKILGNTFGMCVLQDFEALTPNLLARTVETVEGGGLVVILLRTMNSLKQLYTVTMDVHSRYRTEAHQDVVGRFNERFILSLASCKKCLVIDDQLNILPISSHVATMEALPPQTPDESLGPSDLELRELKESLQDTQPVGVLVDCCKTLDQAKAVLKFIEGISEKTLRSTVALTAARGRGKSAALGLAIAGAVAFGYSNIFVTSPSPDNLHTLFEFVFKGFDALQYQEHLDYEIIQSLNPEFNKAVIRVNVFREHRQTIQYIHPADAVKLGQAELVVIDEAAAIPLPLVKSLLGPYLVFMASTINGYEGTGRSLSLKLIQQLRQQSAQSQVSTTAENKTTTTARLASARTLYEVSLQESIRYAPGDAVEKWLNDLLCLDCLNITRIVSGCPLPEACELYYVNRDTLFCYHKASEVFLQRLMALYVASHYKNSPNDLQMLSDAPAHHLFCLLPPVPPTQNALPEVLAVIQVCLEGEISRQSILNSLSRGKKASGDLIPWTVSEQFQDPDFGGLSGGRVVRIAVHPDYQGMGYGSRALQLLQMYYEGRFPCLEEKVLETPQEIHTVSSEAVSLLEEVITPRKDLPPLLLKLNERPAERLDYLGVSYGLTPRLLKFWKRAGFVPVYLRQTPNDLTGEHSCIMLKTLTDEDEADQGGWLAAFWKDFRRRFLALLSYQFSTFSPSLALNIIQNRNMGKPAQPALSREELEALFLPYDLKRLEMYSRNMVDYHLIMDMIPAISRIYFLNQLGDLALSAAQSALLLGIGLQHKSVDQLEKEIELPSGQLMGLFNRIIRKVVKLFNEVQEKAIEEQMVAAKDVVMEPTMKTLSDDLDEAAKEFQEKHKKEVGKLKSMDLSEYIIRGDDEEWNEVLNKAGPNASIISLKSDKKRKLEAKQEPKQSKKLKNRETKNKKDMKLKRKK",-0.2324,2.262,,
"GEMIN8 (protein, UniProt Q9NWZ8 1-242, looked up) Gem-associated protein 8: MAAVKASTSKATRPWYSHPVYARYWQHYHQAMAWMQSHHNAYRKAVESCFNLPWYLPSALLPQSSYDNEAAYPQSFYDHHVAWQDYPCSSSHFRRSGQHPRYSSRIQASTKEDQALSKEEEMETESDAEVECDLSNMEITEELRQYFAETERHREERRRQQQLDAERLDSYVNADHDLYCNTRRSVEAPTERPGERRQAEMKRLYGDSAAKIQAMEAAVQLSFDKHCDRKQPKYWPVIPLKF",-0.2137,0.1049,,
"WDR36 (protein, UniProt Q8NI36 1-895, looked up) WD repeat-containing protein …: MERASERRTASALFAGFRALGLFSNDIPHVVRFSALKRRFYVTTCVGKSFHTYDVQKLSLVAVSNSVPQDICCMAADGRLVFAAYGNVFSAFARNKEIVHTFKGHKAEIHFLQPFGDHIISVDTDGILIIWHIYSEEEYLQLTFDKSVFKISAILHPSTYLNKILLGSEQGSLQLWNVKSNKLLYTFPGWKVGVTALQQAPAVDVVAIGLMSGQVIIHNIKFNETLMKFRQDWGPITSISFRTDGHPVMAAGSPCGHIGLWDLEDKKLINQMRNAHSTAIAGLTFLHREPLLVTNGADNALRIWIFDGPTGEGRLLRFRMGHSAPLTNIRYYGQNGQQILSASQDGTLQSFSTVHEKFNKSLGHGLINKKRVKRKGLQNTMSVRLPPITKFAAEEARESDWDGIIACHQGKLSCSTWNYQKSTIGAYFLKPKELKKDDITATAVDITSCGNFAVIGLSSGTVDVYNMQSGIHRGSFGKDQAHKGSVRGVAVDGLNQLTVTTGSEGLLKFWNFKNKILIHSVSLSSSPNIMLLHRDSGILGLALDDFSISVLDIETRKIVREFSGHQGQINDMAFSPDGRWLISAAMDCSIRTWDLPSGCLIDCFLLDSAPLNVSMSPTGDFLATSHVDHLGIYLWSNISLYSVVSLRPLPADYVPSIVMLPGTCQTQDVEVSEETVEPSDELIEYDSPEQLNEQLVTLSLLPESRWKNLLNLDVIKKKNKPKEPPKVPKSAPFFIPTIPGLVPRYAAPEQNNDPQQSKVVNLGVLAQKSDFCLKLEEGLVNNKYDTALNLLKESGPSGIETELRSLSPDCGGSIEVMQSFLKMIGMMLDRKRDFELAQAYLALFLKLHLKMLPSEPVLLEEITNLSSQVEENWTHLQSLFNQSMCILNYLKSALL",-0.2458,1.174,,
"ILF3 (protein, UniProt Q12906 1-894, looked up) Interleukin enhancer-binding …: MRPMRIFVNDDRHVMAKHSSVYPTQEELEAVQNMVSHTERALKAVSDWIDEQEKGSSEQAESDNMDVPPEDDSKEGAGEQKTEHMTRTLRGVMRVGLVAKGLLLKGDLDLELVLLCKEKPTTALLDKVADNLAIQLAAVTEDKYEILQSVDDAAIVIKNTKEPPLSLTIHLTSPVVREEMEKVLAGETLSVNDPPDVLDRQKCLAALASLRHAKWFQARANGLKSCVIVIRVLRDLCTRVPTWGPLRGWPLELLCEKSIGTANRPMGAGEALRRVLECLASGIVMPDGSGIYDPCEKEATDAIGHLDRQQREDITQSAQHALRLAAFGQLHKVLGMDPLPSKMPKKPKNENPVDYTVQIPPSTTYAITPMKRPMEEDGEEKSPSKKKKKIQKKEEKAEPPQAMNALMRLNQLKPGLQYKLVSQTGPVHAPIFTMSVEVDGNSFEASGPSKKTAKLHVAVKVLQDMGLPTGAEGRDSSKGEDSAEETEAKPAVVAPAPVVEAVSTPSAAFPSDATAEQGPILTKHGKNPVMELNEKRRGLKYELISETGGSHDKRFVMEVEVDGQKFQGAGSNKKVAKAYAALAALEKLFPDTPLALDANKKKRAPVPVRGGPKFAAKPHNPGFGMGGPMHNEVPPPPNLRGRGRGGSIRGRGRGRGFGGANHGGYMNAGAGYGSYGYGGNSATAGYSQFYSNGGHSGNASGGGGGGGGGSSGYGSYYQGDNYNSPVPPKHAGKKQPHGGQQKPSYGSGYQSHQGQQQSYNQSPYSNYGPPQGKQKGYNHGQGSYSYSNSYNSPGGGGGSDYNYESKFNYSGSGGRSGGNSYGSGGASYNPGSHGGYGGGSGGGSSYQGKQGGYSQSNYNSPGSGQNYSGPPSSYQSSQGGYGRNADHSMNYQYR",-0.2231,3.029,,
"KIFC3 (protein, UniProt Q9BVG8 1-833, looked up) Kinesin-like protein KIFC3: MVPSRRTWNLGATPSLRGLWRVGRAPEPEPGMARPAPAPASPAARPFPHTGPGRLRTGRGKDTPVCGDEDSSARSAARPALAQCRALSVDWAGPGSPHGLYLTLQVEHLKEKLISQAQEVSRLRSELGGTDLEKHRDLLMVENERLRQEMRRCEAELQELRTKPAGPCPGCEHSQESAQLRDKLSQLQLEMAESKGMLSELNLEVQQKTDRLAEVELRLKDCLAEKAQEEERLSRRLRDSHETIASLRAQSPPVKYVIKTVEVESSKTKQALSESQARNQHLQEQVAMQRQVLKEMEQQLQSSHQLTARLRAQIAMYESELERAHGQMLEEMQSLEEDKNRAIEEAFARAQVEMKAVHENLAGVRTNLLTLQPALRTLTNDYNGLKRQVRGFPLLLQEALRSVKAEIGQAIEEVNSNNQELLRKYRRELQLRKKCHNELVRLKGNIRVIARVRPVTKEDGEGPEATNAVTFDADDDSIIHLLHKGKPVSFELDKVFSPQASQQDVFQEVQALVTSCIDGFNVCIFAYGQTGAGKTYTMEGTAENPGINQRALQLLFSEVQEKASDWEYTITVSAAEIYNEVLRDLLGKEPQEKLEIRLCPDGSGQLYVPGLTEFQVQSVDDINKVFEFGHTNRTTEFTNLNEHSSRSHALLIVTVRGVDCSTGLRTTGKLNLVDLAGSERVGKSGAEGSRLREAQHINKSLSALGDVIAALRSRQGHVPFRNSKLTYLLQDSLSGDSKTLMVVQVSPVEKNTSETLYSLKFAERVRSVELGPGLRRAELGSWSSQEHLEWEPACQTPQPSARAHSAPSSGTSSRPGSIRRKLQPSGKSRPLPV",-0.1977,1.361,,
"FAM120A (protein, UniProt Q9NZB2 1-1118, looked up) Constitutive coactivator of …: MGVQGFQDYIEKHCPSAVVPVELQKLARGSLVGGGRQRPPQTPLRLLVDADNCLHRLYGGFYTDWVSGGQWNHMLGYLAALAKACFGGNIELFVFFNGALEKARLHEWVKRQGNERQTAQQIVSHVQNKGTPPPKVWFLPPVCMAHCIRLALIRFHVKVAQSIEDHHQEVIGFCRENGFHGLVAYDSDYALCNIPYYFSAHALKLSRNGKSLTTSQYLMHEVAKQLDLNPNRFPIFAALLGNHILPDEDLASFHWSLLGPEHPLASLKVRAHQLVLPPCDVVIKAVADYVRNIQDTSDLDAIAKDVFQHSQSRTDDKVIRFKRAIGYYSATSKPMSFHPPHYLAARPGPFGMPGMVPPHVPPQMLNIPQTSLQAKPVAPQVPSPGGAPGQGPYPYSLSEPAPLTLDTSGKNLTEQNSYSNIPHEGKHTPLYERSSPINPAQSGSPNHVDSAYFPGSSTSSSSDNDEGSGGATNHISGNKIGWEKTGSHSEPQARGDPGDQTKAEGSSTASSGSQLAEGKGSQMGTVQPIPCLLSMPTRNHMDITTPPLPPVAPEVLRVAEHRHKKGLMYPYIFHVLTKGEIKIAVSIEDEANKDLPPAALLYRPVRQYVYGVLFSLAESRKKTERLAFRKNRLPPEFSPVIIKEWAAYKGKSPQTPELVEALAFREWTCPNLKRLWLGKAVEDKNRRMRAFLACMRSDTPAMLNPANVPTHLMVLCCVLRYMVQWPGARILRRQELDAFLAQALSPKLYEPDQLQELKIENLDPRGIQLSALFMSGVDMALFANDACGQPIPWEHCCPWMYFDGKLFQSKLLKASREKTPLIDLCDGQADQAAKVEKMRQSVLEGLSFSRQSHTLPFPPPPALPFYPASAYPRHFGPVPPSQGRGRGFAGVCGFGGPYGETVATGPYRAFRVAAASGHCGAFSGSDSSRTSKSQGGVQPIPSQGGKLEIAGTVVGHWAGSRRGRGGRGPFPLQVVSVGGPARGRPRGVISTPVIRTFGRGGRYYGRGYKNQAAIQGRPPYAASAEEVAKELKSKSGESKSSAMSSDGSLAENGVMAEEKPAPQMNGSTGDARAPSHSESALNNDSKTCNTNPHLNALSTDSACRREAALEAAVLNKEE",,,1.725,-0.07006
